Assay results reported in PMC10992996, “Human CRB1 and CRB2 form homo- and heteromeric protein complexes in the retina” (Life Science Alliance, 2024).

Biological target: T1, CRB1-FLAG p.C1174G (human, UniProt P82279 26-1406, p.C1174G)
T1 construct: Crumbs homolog 1, canonical form, human, cDNA NM_202153 as printed, with a patient missense mutation; Made by site-directed mutagenesis of m1; also called CRB1 p.C1174G; CRB1-FLAG MT; source: HEK293T, transfected, in lysate; not shown: Strep-Strep-FLAG, N-terminal, kept
T1 sequence (looked up): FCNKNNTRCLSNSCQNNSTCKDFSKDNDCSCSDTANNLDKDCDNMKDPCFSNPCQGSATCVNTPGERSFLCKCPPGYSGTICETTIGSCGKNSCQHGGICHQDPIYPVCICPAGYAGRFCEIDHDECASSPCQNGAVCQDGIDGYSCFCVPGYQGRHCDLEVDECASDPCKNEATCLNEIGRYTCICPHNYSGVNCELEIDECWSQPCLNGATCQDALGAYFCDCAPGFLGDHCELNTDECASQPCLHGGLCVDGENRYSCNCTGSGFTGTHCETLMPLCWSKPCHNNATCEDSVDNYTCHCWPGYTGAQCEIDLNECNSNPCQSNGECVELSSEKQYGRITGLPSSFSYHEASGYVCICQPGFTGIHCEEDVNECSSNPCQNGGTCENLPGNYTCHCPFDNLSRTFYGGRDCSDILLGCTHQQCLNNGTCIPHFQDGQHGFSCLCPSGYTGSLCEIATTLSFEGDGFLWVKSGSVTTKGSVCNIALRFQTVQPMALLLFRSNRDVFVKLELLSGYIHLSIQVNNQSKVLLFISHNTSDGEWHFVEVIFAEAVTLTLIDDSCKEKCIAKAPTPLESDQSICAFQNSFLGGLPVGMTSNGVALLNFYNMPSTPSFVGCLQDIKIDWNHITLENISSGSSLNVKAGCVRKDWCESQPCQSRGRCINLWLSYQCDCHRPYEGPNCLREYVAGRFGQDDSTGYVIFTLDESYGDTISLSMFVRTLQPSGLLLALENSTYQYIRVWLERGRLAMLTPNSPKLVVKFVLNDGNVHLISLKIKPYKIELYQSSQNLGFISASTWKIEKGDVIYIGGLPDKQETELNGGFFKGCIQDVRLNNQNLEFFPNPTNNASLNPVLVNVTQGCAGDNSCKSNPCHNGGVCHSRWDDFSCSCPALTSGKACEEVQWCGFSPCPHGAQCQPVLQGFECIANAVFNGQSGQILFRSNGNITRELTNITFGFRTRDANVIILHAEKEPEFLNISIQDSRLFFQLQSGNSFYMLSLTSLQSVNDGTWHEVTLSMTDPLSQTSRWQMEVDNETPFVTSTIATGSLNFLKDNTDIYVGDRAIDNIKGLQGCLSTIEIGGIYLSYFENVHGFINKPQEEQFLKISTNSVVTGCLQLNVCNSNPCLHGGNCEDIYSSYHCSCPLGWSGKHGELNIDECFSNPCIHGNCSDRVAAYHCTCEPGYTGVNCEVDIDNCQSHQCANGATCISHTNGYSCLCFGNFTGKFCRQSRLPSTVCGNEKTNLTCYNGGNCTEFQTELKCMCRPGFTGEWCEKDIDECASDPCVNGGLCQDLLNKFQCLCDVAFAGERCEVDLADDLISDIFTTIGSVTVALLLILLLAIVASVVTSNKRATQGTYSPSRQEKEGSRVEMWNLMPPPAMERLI
Assay: co-IP; HEK293T cells co-transfected pairwise with a FLAG and an HA construct, 48 h; lysis in TBS (30 mM Tris-HCl pH 7.4, 150 mM NaCl) with 0.5% Nonidet P40; FLAG-IP on ANTI-FLAG M2 Affinity Gel 60-90 min at 4°C, elution with FLAG peptide; Western blot with HA and FLAG antibodies; for mutants HA/FLAG signal in eluates relative to WT, three biological replicates
Details: partners not purified

B1: Human canonical CRB2 (Crumbs homolog 2) (natural protein)
chain: not shown
notes: Crumbs homolog 2, human, cDNA NM_173689; Stood as bait (FLAG copy) and as prey (HA copy) in the pairwise co-IP matrix; each copy carries only one of the two tags; The FLAG copy was the bait of the mass spectrometry pull-downs; also called CRB2-FLAG; CRB2-HA; source: HEK293T, transfected, in lysate (co-IP); HEK293T, transfected, FLAG-IP on beads, washed and purified with 0.01% SDS (retina …)
percent reduction of the interaction relative to CRB1 WT: 17%
